Consider 1 substance from patent US8642559.

The target in series [1] is GST fusion protein with mGluR1α Ile812 to Ser943 attached to the C-terminus of GST (UniProt P23385).
Series [2] has as its target GST fusion protein with mGluR1α Asn889 to Leu1058 fused to the C-terminus of GST (UniProt P23385).
For series [3], the target named is myc-mGluR1α (mGluR1α tagged with a c-myc epitope inserted in frame after Ala30) (UniProt P23385).
The subject of series [4] is spectrin in brain membranes.

Chain of GST fusion protein with mGluR1α Ile812 to Ser943 attached to the C-terminus of GST (P23385 812-943): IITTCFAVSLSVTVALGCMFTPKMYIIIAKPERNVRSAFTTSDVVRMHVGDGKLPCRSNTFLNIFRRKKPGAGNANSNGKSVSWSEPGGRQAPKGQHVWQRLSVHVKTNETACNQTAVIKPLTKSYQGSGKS
Chain of myc-mGluR1α (mGluR1α tagged with a c-myc epitope inserted in frame after Ala30) (P23385 other isoform, or with tags, fused parts or gaps): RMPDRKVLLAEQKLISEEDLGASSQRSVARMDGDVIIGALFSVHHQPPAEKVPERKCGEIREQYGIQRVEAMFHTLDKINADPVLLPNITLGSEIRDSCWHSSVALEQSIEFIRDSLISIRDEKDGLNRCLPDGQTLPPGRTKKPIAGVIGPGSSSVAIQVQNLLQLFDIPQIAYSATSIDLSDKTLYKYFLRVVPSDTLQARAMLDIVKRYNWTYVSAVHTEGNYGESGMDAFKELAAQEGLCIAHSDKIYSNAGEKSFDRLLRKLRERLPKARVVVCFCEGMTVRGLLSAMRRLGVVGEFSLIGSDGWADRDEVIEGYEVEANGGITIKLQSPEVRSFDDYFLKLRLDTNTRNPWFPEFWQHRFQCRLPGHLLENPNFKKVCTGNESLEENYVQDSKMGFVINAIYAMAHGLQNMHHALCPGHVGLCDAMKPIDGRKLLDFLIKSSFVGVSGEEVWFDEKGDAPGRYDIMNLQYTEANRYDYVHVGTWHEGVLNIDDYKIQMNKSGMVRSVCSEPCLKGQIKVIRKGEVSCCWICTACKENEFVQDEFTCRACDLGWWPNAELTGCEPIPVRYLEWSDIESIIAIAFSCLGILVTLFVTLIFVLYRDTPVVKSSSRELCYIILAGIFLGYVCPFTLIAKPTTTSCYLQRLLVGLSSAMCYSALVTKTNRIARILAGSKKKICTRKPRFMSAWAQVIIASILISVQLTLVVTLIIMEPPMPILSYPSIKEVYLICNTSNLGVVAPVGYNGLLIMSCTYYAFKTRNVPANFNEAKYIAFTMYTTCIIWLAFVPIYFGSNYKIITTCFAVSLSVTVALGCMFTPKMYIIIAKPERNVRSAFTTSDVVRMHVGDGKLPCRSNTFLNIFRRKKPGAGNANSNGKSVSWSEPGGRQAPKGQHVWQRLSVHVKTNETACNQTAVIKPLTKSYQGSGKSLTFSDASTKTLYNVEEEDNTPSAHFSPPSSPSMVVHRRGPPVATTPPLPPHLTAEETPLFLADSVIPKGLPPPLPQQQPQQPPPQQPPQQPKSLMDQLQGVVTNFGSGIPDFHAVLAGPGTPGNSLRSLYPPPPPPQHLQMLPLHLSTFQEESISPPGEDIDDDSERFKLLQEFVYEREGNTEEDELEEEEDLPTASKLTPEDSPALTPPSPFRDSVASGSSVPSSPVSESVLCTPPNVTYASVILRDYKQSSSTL
Chain of GST fusion protein with mGluR1α Asn889 to Leu1058 fused to the C-terminus of GST (P23385 889-1058): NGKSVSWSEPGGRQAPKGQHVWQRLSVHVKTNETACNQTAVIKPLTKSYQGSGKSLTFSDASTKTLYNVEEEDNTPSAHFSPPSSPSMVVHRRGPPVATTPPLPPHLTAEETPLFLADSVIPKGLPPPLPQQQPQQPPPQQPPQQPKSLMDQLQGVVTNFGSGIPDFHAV

Turning to µ-calpain, in series [1], the “digestion of the purified GST fusion protein with calpain in the presence of 2 mM CaCl2” value is recorded as “The GST-mGluR1α fusion protein became about 2 kD smaller after digestion”. The “digestion of the GST fusion protein with calpain, Edman sequencing” value in series [2] is reported as “after digestion with calpain, this fusion protein generated a 10 kD fragment”. The “cleavage of immunoprecipitated myc-mGluR1α by µ-calpain (30 min), silver staining and Western blots” value in series [3] was “the density of the 145 kD band that represents the whole-length mGluR1α decreased dose-dependently with calpain treatment”. Moreover, the “truncation in brain membranes treated with purified calpain and calcium” value in series [4] is “truncation of both mGluR1 and spectrin was observed”.
